Results from the Human Domainome abundance scans (Beltran et al. 2025).
± gives the uncertainty stated by the source.

Test: abundance fitness (aPCA) (normalised: wild type 0, dead -1); higher = more abundant; growth selection in yeast, the domain comes from the species named
Details: Homo sapiens

Substance | abundance fitness
E3 ubiquitin-protein ligase NEDD4-like D204A, Q96PU5 | -0.392 ± 0.068
E3 ubiquitin-protein ligase NEDD4-like D204C, Q96PU5 | -0.151 ± 0.099
E3 ubiquitin-protein ligase NEDD4-like D204E, Q96PU5 | -0.505 ± 0.089
E3 ubiquitin-protein ligase NEDD4-like D204G, Q96PU5 | -0.491 ± 0.057
E3 ubiquitin-protein ligase NEDD4-like D204H, Q96PU5 | -0.684 ± 0.14
E3 ubiquitin-protein ligase NEDD4-like D204I, Q96PU5 | -1.04 ± 0.17
E3 ubiquitin-protein ligase NEDD4-like D204K, Q96PU5 | -0.894 ± 0.13
E3 ubiquitin-protein ligase NEDD4-like D204L, Q96PU5 | -0.803 ± 0.072
E3 ubiquitin-protein ligase NEDD4-like D204M, Q96PU5 | -0.751 ± 0.075
E3 ubiquitin-protein ligase NEDD4-like D204N, Q96PU5 | -0.451 ± 0.14
E3 ubiquitin-protein ligase NEDD4-like D204P, Q96PU5 | -0.897 ± 0.15
E3 ubiquitin-protein ligase NEDD4-like D204Q, Q96PU5 | -0.668 ± 0.077
E3 ubiquitin-protein ligase NEDD4-like D204R, Q96PU5 | -1.03 ± 0.062
E3 ubiquitin-protein ligase NEDD4-like D204S, Q96PU5 | -0.037 ± 0.064
E3 ubiquitin-protein ligase NEDD4-like D204V, Q96PU5 | -0.908 ± 0.074
E3 ubiquitin-protein ligase NEDD4-like D204W, Q96PU5 | -1.4 ± 0.12
E3 ubiquitin-protein ligase NEDD4-like D228A, Q96PU5 | -0.091 ± 0.07
E3 ubiquitin-protein ligase NEDD4-like D228C, Q96PU5 | -0.332 ± 0.067
E3 ubiquitin-protein ligase NEDD4-like D228E, Q96PU5 | 0.062 ± 0.09
E3 ubiquitin-protein ligase NEDD4-like D228F, Q96PU5 | -0.329 ± 0.11
E3 ubiquitin-protein ligase NEDD4-like D228G, Q96PU5 | 0.031 ± 0.056
E3 ubiquitin-protein ligase NEDD4-like D228H, Q96PU5 | 0.122 ± 0.079
E3 ubiquitin-protein ligase NEDD4-like D228I, Q96PU5 | -0.474 ± 0.12
E3 ubiquitin-protein ligase NEDD4-like D228K, Q96PU5 | -0.002 ± 0.079

Substance | abundance fitness
E3 ubiquitin-protein ligase NEDD4-like D228L, Q96PU5 | -0.14 ± 0.062
E3 ubiquitin-protein ligase NEDD4-like D228M, Q96PU5 | -0.175 ± 0.099
E3 ubiquitin-protein ligase NEDD4-like D228N, Q96PU5 | 0.063 ± 0.097
E3 ubiquitin-protein ligase NEDD4-like D228P, Q96PU5 | 0.099 ± 0.07
E3 ubiquitin-protein ligase NEDD4-like D228Q, Q96PU5 | -0.277 ± 0.085
E3 ubiquitin-protein ligase NEDD4-like D228R, Q96PU5 | -0.101 ± 0.061
E3 ubiquitin-protein ligase NEDD4-like D228S, Q96PU5 | -0.053 ± 0.059
E3 ubiquitin-protein ligase NEDD4-like D228T, Q96PU5 | 0.042 ± 0.076
E3 ubiquitin-protein ligase NEDD4-like D228V, Q96PU5 | -0.159 ± 0.071
E3 ubiquitin-protein ligase NEDD4-like D228W, Q96PU5 | -0.419 ± 0.064
E3 ubiquitin-protein ligase NEDD4-like E188A, Q96PU5 | -0.854 ± 0.29
E3 ubiquitin-protein ligase NEDD4-like E188G, Q96PU5 | -1.07 ± 0.49
E3 ubiquitin-protein ligase NEDD4-like E188L, Q96PU5 | -0.459 ± 0.28
E3 ubiquitin-protein ligase NEDD4-like E188S, Q96PU5 | 0.089 ± 0.22
E3 ubiquitin-protein ligase NEDD4-like E188V, Q96PU5 | 0.297 ± 0.2
E3 ubiquitin-protein ligase NEDD4-like E189A, Q96PU5 | -0.356 ± 0.065
E3 ubiquitin-protein ligase NEDD4-like E189C, Q96PU5 | -0.176 ± 0.062
E3 ubiquitin-protein ligase NEDD4-like E189D, Q96PU5 | -0.189 ± 0.093
E3 ubiquitin-protein ligase NEDD4-like E189G, Q96PU5 | -0.241 ± 0.058
E3 ubiquitin-protein ligase NEDD4-like E189H, Q96PU5 | -0.242 ± 0.13
E3 ubiquitin-protein ligase NEDD4-like E189I, Q96PU5 | 0.107 ± 0.13
E3 ubiquitin-protein ligase NEDD4-like E189K, Q96PU5 | -0.026 ± 0.082
E3 ubiquitin-protein ligase NEDD4-like E189L, Q96PU5 | -0.278 ± 0.065
E3 ubiquitin-protein ligase NEDD4-like E189M, Q96PU5 | -0.477 ± 0.081

Substance | abundance fitness
E3 ubiquitin-protein ligase NEDD4-like E189N, Q96PU5 | 0.222 ± 0.095
E3 ubiquitin-protein ligase NEDD4-like E189P, Q96PU5 | -0.384 ± 0.093
E3 ubiquitin-protein ligase NEDD4-like E189Q, Q96PU5 | -0.062 ± 0.097
E3 ubiquitin-protein ligase NEDD4-like E189R, Q96PU5 | -0.23 ± 0.055
E3 ubiquitin-protein ligase NEDD4-like E189S, Q96PU5 | -0.136 ± 0.065
E3 ubiquitin-protein ligase NEDD4-like E189T, Q96PU5 | -0.087 ± 0.077
E3 ubiquitin-protein ligase NEDD4-like E189V, Q96PU5 | -0.267 ± 0.069
E3 ubiquitin-protein ligase NEDD4-like E189W, Q96PU5 | -0.56 ± 0.065
E3 ubiquitin-protein ligase NEDD4-like E189Y, Q96PU5 | 0.16 ± 0.1
E3 ubiquitin-protein ligase NEDD4-like E200A, Q96PU5 | -0.105 ± 0.062
E3 ubiquitin-protein ligase NEDD4-like E200C, Q96PU5 | -0.092 ± 0.08
E3 ubiquitin-protein ligase NEDD4-like E200D, Q96PU5 | -0.346 ± 0.081
E3 ubiquitin-protein ligase NEDD4-like E200F, Q96PU5 | -0.328 ± 0.083
E3 ubiquitin-protein ligase NEDD4-like E200G, Q96PU5 | -0.299 ± 0.059
E3 ubiquitin-protein ligase NEDD4-like E200H, Q96PU5 | -0.721 ± 0.18
E3 ubiquitin-protein ligase NEDD4-like E200K, Q96PU5 | -0.161 ± 0.062
E3 ubiquitin-protein ligase NEDD4-like E200L, Q96PU5 | -0.266 ± 0.08
E3 ubiquitin-protein ligase NEDD4-like E200M, Q96PU5 | -0.152 ± 0.074
E3 ubiquitin-protein ligase NEDD4-like E200N, Q96PU5 | -0.471 ± 0.13
E3 ubiquitin-protein ligase NEDD4-like E200P, Q96PU5 | -1.29 ± 0.2
E3 ubiquitin-protein ligase NEDD4-like E200Q, Q96PU5 | -0.072 ± 0.11
E3 ubiquitin-protein ligase NEDD4-like E200R, Q96PU5 | -0.31 ± 0.065
E3 ubiquitin-protein ligase NEDD4-like E200S, Q96PU5 | -0.166 ± 0.077
E3 ubiquitin-protein ligase NEDD4-like E200T, Q96PU5 | -0.138 ± 0.081

Substance | abundance fitness
E3 ubiquitin-protein ligase NEDD4-like E200V, Q96PU5 | -0.179 ± 0.084
E3 ubiquitin-protein ligase NEDD4-like E200W, Q96PU5 | -0.603 ± 0.069
E3 ubiquitin-protein ligase NEDD4-like E200Y, Q96PU5 | -0.357 ± 0.072
E3 ubiquitin-protein ligase NEDD4-like E201A, Q96PU5 | -0.1 ± 0.066
E3 ubiquitin-protein ligase NEDD4-like E201C, Q96PU5 | -0.084 ± 0.09
E3 ubiquitin-protein ligase NEDD4-like E201F, Q96PU5 | -0.412 ± 0.14
E3 ubiquitin-protein ligase NEDD4-like E201G, Q96PU5 | -0.282 ± 0.05
E3 ubiquitin-protein ligase NEDD4-like E201H, Q96PU5 | -0.223 ± 0.13
E3 ubiquitin-protein ligase NEDD4-like E201L, Q96PU5 | -0.257 ± 0.061
E3 ubiquitin-protein ligase NEDD4-like E201M, Q96PU5 | -0.066 ± 0.11
E3 ubiquitin-protein ligase NEDD4-like E201N, Q96PU5 | -0.212 ± 0.06
E3 ubiquitin-protein ligase NEDD4-like E201P, Q96PU5 | -0.255 ± 0.091
E3 ubiquitin-protein ligase NEDD4-like E201Q, Q96PU5 | -0.228 ± 0.12
E3 ubiquitin-protein ligase NEDD4-like E201R, Q96PU5 | -0.209 ± 0.057
E3 ubiquitin-protein ligase NEDD4-like E201S, Q96PU5 | -0.124 ± 0.061
E3 ubiquitin-protein ligase NEDD4-like E201T, Q96PU5 | -0.098 ± 0.1
E3 ubiquitin-protein ligase NEDD4-like E201V, Q96PU5 | -0.14 ± 0.052
E3 ubiquitin-protein ligase NEDD4-like E201W, Q96PU5 | -0.423 ± 0.065
E3 ubiquitin-protein ligase NEDD4-like E201Y, Q96PU5 | -0.278 ± 0.056
E3 ubiquitin-protein ligase NEDD4-like E232A, Q96PU5 | -0.173 ± 0.11
E3 ubiquitin-protein ligase NEDD4-like E232D, Q96PU5 | -0.354 ± 0.12
E3 ubiquitin-protein ligase NEDD4-like E232G, Q96PU5 | -0.287 ± 0.12
E3 ubiquitin-protein ligase NEDD4-like E232H, Q96PU5 | -0.574 ± 0.18
